The text below walks through data of the RNAGym collection of RNA variant scans (doi:10.1073/pnas.2313332121).

First the molecules themselves.
B1: TPR t1 (parent)
chain: GACCAAUCUGCCCUCAGAGCUCGAGAACAUCUUCGGAUGCAGAGGAGGCAGGCUUCGGUGGCGCGAUAGCGCCAACGUCCUCAACCUCCAAUGCAUCCCACCACAUGAUGAUGCCUGAAGAGCCUUGGUUUUUUG

This data set covers variants of B1. As to the kind of experiment: polymerase ribozyme fitness, log enrichment relative to wild type (log ratio); higher = more active; in vitro selection for triplet polymerase activity. A digest of the protocol: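 For each subunit of a heterodimeric triplet polymerase ribozyme, a mutant library was built by PCR and transcribed, then taken through a single in vitro selection round in triplicate. Selection involved annealing to a biotinylated primer, the partner subunit and triplets, incubation frozen at −7 °C, gel excision of extended constructs, capture on streptavidin beads and RT-PCR. Genotypes were retained after Illumina sequencing of inputs and outputs only with ≥10 input reads and ≥1 read in each output. Fitness is defined as the logarithm of a genotype's enrichment relative to wild-type enrichment, using inverse-variance-weighted averages across replicates, with the logarithm taken to base 2.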
For the variant GACCAAUCUGCCCUUAGAGCUCGAGAACAUCUUCGGAUGCAGAGGAGGCAGGCUUCGGUGGCGCGAUAGCCCCAACGUCGUCAACCUCCAAUGCAUCCCACCACAUGAUGAUGCCUGAAGAGCCUUGGUUUUUUG [C15U G71C C80G], the “polymerase ribozyme fitness (log ratio)” value is -6.22.

For the variant GACCAAUCUGCCCUUAGAGCUCGAGAACAUCUUCGGAUGCAGAUGAGGCAGGCUUCGGUGGCGCGAUAGCGCCAACGUCCUCAACCUCCAAUGCAUCCCACCACAUGAUGAUGCCUGAAGAGCCUUGGUUUUUUG [C15U G44U], the “polymerase ribozyme fitness (log ratio)” value was -2.59. The same measure for GACCAAUCUGCCCUUAGAGCUCGAGAACAUCUUCGCAUGCAGAGGAGGCAGGCUUCGGUGGCGCGAUAGCGCCAACGUCCUCAACCUCCAAUGCAUCCCACCACAUGAUGACGCCUGAAGAGCCUUGGUUUUUUG [C15U G36C U112C]: -1.24.

In the case of GACCAAUCUGCCCUUAGAGCUCGAGAACAUCUUCGGAUGCAGAGGAGGCAGACUUCGGUGGCGCGAUAGCGCCAACGUCCUCAACCUCCAAUGCAUCCCACGACAUGAUGAUGCCUGAAGAGCAUUGGUUUUUUG [C15U G52A C102G C124A], the “polymerase ribozyme fitness (log ratio)” value was -5.21.

Consider GACCAAUCUGCCCUUAGAGCUCGAGAACAUCUUCGGAUGCACAGGAGGCAGGCUUCGGUGGCGCGAUAGCGCCAAUGUCCUCAACCUCCAAUGCAUCCCACCACAAGAUGAUGCCUGAAGAGCCUUGGUUUUUUG [C15U G42C C76U U106A], for which the “polymerase ribozyme fitness (log ratio)” value was -4.25. On to GACCAAUCUGCCCUUAGAGCUCGAGAACAUCUUCGGAUGCAGAGGAGACAGGCUUCGGUGGCGCGAUAGCGCCAACGUCCUCAACCUCCAAUGCAUCCCACCACAUGAUGAUGCCUGAAGAGCCUUGGUUUUUUG [C15U G48A], for which the “polymerase ribozyme fitness (log ratio)” value was -1.7. GACCAAUCUGCCCUUAGAGCUCGAGAACAUCUUCGGAUGCAGAGGAGGCAGGCUUCGGUGGCACGAUAGCGCUAACGUCCUCAACCUCCCAUGCAUCCCACCACAUGAUUAUGCCUGAAGAGCCUUGGUUUUUUG [C15U G63A C73U A90C G110U]: the “polymerase ribozyme fitness (log ratio)” value is -5.03. With GACCAAUCUGCCCUUAGAGCUCGAGAACAUCUUCGGAUGCAGAGGAGGCAGGCUUCGGUGGCGCGAUAGCACCAACGUCCUCAACCUCCAAUGCAUCCCACAACAUGAUGAUGCCUGAAGAGCCUUGGUUUUUUG [C15U G71A C102A] the figure was -5.13. With GACCAAUCUGCCCUUAGAGCUCGAGAACAUCUUCGGAUGCAGAGGAGGCAGGCUUCGGUGGCGCGAUACCGCGAACGUCCUCAACCUCCAAUGAAUCCCACCACAUGAUGCUGCCUGAAGAGCCUUGGUUUUUUG [C15U G69C C73G C94A A111C], the “polymerase ribozyme fitness (log ratio)” value is -6.09.

On to GACCAAUCUGCCCUUAGAGCUCGAGAACAUCUUCGGAUGCAGAGGAGGCAGGCUUCGGUGUCGCGAUAGCGCCAACGUCCUCAACCUCCAAUGCAUCCCACCACAUGAUGAUGCCUGAAGAGCCUUGGUUUUUUG [C15U G61U], for which the “polymerase ribozyme fitness (log ratio)” value was -0.638. The same measure for GACCAAUCUGCCCUUAGAGCUCGAGAACAUCUUCGGAUGCAGAGGAGGCAGGCUUCGGUGCCGCGAUAGCGCCAACGUCCUCAACCUCCAAUGCAUCCCACCACAUGAUGAUGCCUGAAGAGCCUUGGUUUUUUG [C15U G61C]: -2.32; for GACCAAUCUGCCCUUAGAGCUCGAGAACAUCUUCGGAUACAGAGGAGGCAGGCUUCGGUGGCGCGAUAGCGCCAACGUCCUCAACCUCCAAUGCAUCCCACCACAUGAUGAUGCCUCAAAAGCCUUGGUUUUUUG [C15U G39A G117C G120A]: -3.48. Take GACCAAUCUGCCCUUAGAGCUCGAGAACAUCUUCGGAUGCAGAGGAGGCAGGCUUCAGUGGCGCGAUAGCGCCAACGUCCUCAACCUCCAAUGCAUCCCACCACAUGAUGAUGCCUUAAGAGCCUUGGUUUUUUG [C15U G57A G117U]: the “polymerase ribozyme fitness (log ratio)” value was -3.3.

For GACCAAUCUGCCCUUAGAGCUCAAGAACAUCUUCGGAUGCAGAGGAGGCAGGCUUCGGUGGCGCGAUAGCGCCAACGUCCUCAACCUCCAAUGCAUCCCACCACAUGAUGUUGCCUGAAGAGCCUUGGUUUUUUG [C15U G23A A111U], the “polymerase ribozyme fitness (log ratio)” value is -7.2.

For the variant GACCAAUCUGCCCUUAGAGCUCGAGAACAUCUUCGGAUGCAGAGCAAGCAGGUUUCGGAGGCGCGAUAGCGCCAACGUCCUCAACCUCCGAUGCAUCCCAUCACAUGAUGAUGCCUGAAGAGCCUUGGUUUUUUG [C15U G45C G47A C53U U59A A90G C101U], the “polymerase ribozyme fitness (log ratio)” value is -5.35. Consider GACCAAUCUGCCCUUAGAGCUCGAGAACAUCUUCGGAUGCAGAGGAGGCAGGCUUCGGUGCCGCGAUAGCGCCAACGUCCUCAACCUCCAAUGCAUCCCACCACAUGAUGAUGCCUGAAGAGCCAUGGUUUUUUG [C15U G61C U125A], for which the “polymerase ribozyme fitness (log ratio)” value was -2.92. The same measure for GACCAAUCUGCCCUUAGAGCUCGAGAACAUCUUCGGAUGCAUACGAGGCAGGCUUCGGUGGCGCGAUAGCGCCAACGUCCUCAACCUCCAAUGUAUCCCACCACAUGAUGAUGCCUGAAGAGCCUUGGUUUUUUG [C15U G42U G44C C94U]: -3.39; for GACCAAUCUGCCCUUAGAGCUCGAGAACAUCUUCGGAUGCAGAGGAGGCAGGCUUCGGUGGCGCGAUAGCGCCAACGUCCUCAACCUCCAAUGCAUCCUACAACAUGAUGAUUCCUGGAGAGCCUUGGUUUUUUG [C15U C99U C102A G113U A118G]: -7.09. The same measure for GACCAAUCUGCCCUUAGAGCUCGAGAACAUCUUCGGAUGCAGAGGAGGCAGGCUUCGGUGGCGCGAUAGCGCCAACGUCCUCAACCUCCAAUGCAUCCCACCACAUGAUGAUGCCUGAAGAGCGUUGGUUUUUUG [C15U C124G]: -0.245. The same measure for GACCAAUCUGCCCUUAGAGCUCGAGAACAUCUUCGAAUGCAGAGGAGGCAGGCUUCGGUGGCGCGAUAGCGCCAACGUCCUCAACCUCCAAUGCAUCCCACCACAUGAUGAUGCCUGAAGAGCCUUGGUUUUUUG [C15U G36A]: -1.76; for GACCAAUCUGCCCUUAGAGCUCGAGAACAUCUUCGGAUGCAGAUGAGGCAGGCUUCGGUGGCGCGAUAGCCCCAACGUCCUCAACCUCCAAUGCAUCCCACCACAUGAUGAUGCCUGAAGAGCCUUGGUUUUUUG [C15U G44U G71C]: -2.64.
